For 1 molecule, Kd results are on record in US20260167728A1 (published 2026).

What all share (assay): SPR Biacore 37 C
In general terms: Surface plasmon resonance follows binding to a sensor surface in real time, without labels.

One assay has as its target T1, cynomolgus monkey EGFR (cynomolgus monkey, UniProt A0A2K5WK39 25-645).
T1 construct: also called Cyno EGFR

The next assay has as its target human CD3 (human, UniProt P07766 23-126).
A further assay deals with T2, cynomolgus monkey CD3 (cynomolgus monkey, UniProt Q95LI5 22-117).
T2 construct: also called Cyno CD3
T2 sequence: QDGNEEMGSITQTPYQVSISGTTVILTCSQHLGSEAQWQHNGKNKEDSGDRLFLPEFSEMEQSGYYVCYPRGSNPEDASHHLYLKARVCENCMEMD

human CD3, sequence (P07766 23-126 limits assumed): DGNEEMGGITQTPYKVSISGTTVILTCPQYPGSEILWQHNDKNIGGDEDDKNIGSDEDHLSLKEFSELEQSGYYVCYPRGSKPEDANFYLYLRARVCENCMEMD

B1: AMX-525 (1x-N) (bispecific antibody)
chain: ASSATPESGPGTSTEPSEGSAPGTSESATPESGPGSGPGTSESATPGTSESATPESGPGSEPATSGSETPGTSESATPESGPGTSTEPSEGSAPGSPAGSPTSTEEGTSESATPESGPGSEPATSGSETPGTSESATPESGPGSPAGSPTSTEEGSPAGSPTSTEEGTSTEPSEGSAPGTSESATPESGPGTSESATPESGPGTSESATPESGPGSEPATSGSETPGSEPATSGSETPGSPAGSPTSTEEGTSTEPSEGSAPGTSTEPSEGSAPGSEPATSGSETPGTSESATPEAGRSASHTPAGLTGPGTSESATPESDIQMTQSPSSLSASVGDRVTITCQASQDISNYLNWYQQKPGKAPKLLIYDASNLETGVPSRFSGSGSGTDFTFTISSLQPEDIATYYCQHFDHLPLAFGQGTKVEIKSESATPESGPGTSPGATPESGPGTSESATPQVQLQESGPGLVKPSETLSLTCTVSGGSVSSGDYYWTWIRQPPGKGLEWIGHIYYSGNTNYNPSLKSRVTISVDTSKNQFSLKLSSVTAADTAVYYCARDRVTGAFDIWGQGTLVTVSSGGGGSELVVTQEPSLTVSPGGTVTLTCRSSNGAVTSSNYANWVQQKPGQAPRGLIGGTNKRAPGTPARFSGSLLEGKAALTLSGVQPEDEAVYYCALWYPNLWVFGGGTKLTVLSESATPESGPGTSPGATPESGPGTSESATPEVQLVESGGGIVQPGGSLRLSCAASGFTFSTYAMNWVRQAPGKGLEWVGRIRTKRNDYATYYADSVKGRFTISRDDSKNTLYLQMNSLKTEDTAVYYCVRHENFGNSYVSWFAHWGQGTLVTVSSGTATPESGPG
notes: Singly masked metabolite; that the N-terminal mask is the one kept is read from the label only; not shown: remnant of cleaved RSR-3213
Take B1: the Kd – broadly, the equilibrium constant for the complex coming apart – in the assay with cynomolgus monkey EGFR was found to be 0.25 nM; with human CD3 it was 36 nM; in the assay with cynomolgus monkey CD3, 47 nM.
